Substitutions are numbered along the chain they refer to.
T1: human EphA10 (Homo sapiens, UniProt Q5JZY3)
T1 construct: a protein of the extracellular region of each human Eph receptor fused with the SEAP protein and the His tag; made in house; host or cells: Expi293F cells (culture supernatant)
T1 sequence (Q5JZY3 34-565 limits assumed): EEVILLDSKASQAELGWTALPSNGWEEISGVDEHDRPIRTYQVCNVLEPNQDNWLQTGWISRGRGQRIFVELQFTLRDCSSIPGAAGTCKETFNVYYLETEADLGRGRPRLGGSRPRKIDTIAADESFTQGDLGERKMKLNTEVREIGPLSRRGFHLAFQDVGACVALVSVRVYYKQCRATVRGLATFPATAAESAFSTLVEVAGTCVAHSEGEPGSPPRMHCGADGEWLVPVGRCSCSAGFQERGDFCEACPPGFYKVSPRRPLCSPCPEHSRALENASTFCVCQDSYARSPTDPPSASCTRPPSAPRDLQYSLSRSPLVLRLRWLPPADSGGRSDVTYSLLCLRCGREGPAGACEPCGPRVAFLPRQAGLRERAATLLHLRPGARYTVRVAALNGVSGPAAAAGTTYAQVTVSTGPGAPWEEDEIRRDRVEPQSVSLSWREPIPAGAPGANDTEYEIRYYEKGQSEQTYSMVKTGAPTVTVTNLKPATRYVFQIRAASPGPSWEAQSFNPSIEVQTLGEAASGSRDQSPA

T2: human EphA8 (Homo sapiens, UniProt P29322)
T2 construct: a protein of the extracellular region of each human Eph receptor fused with the SEAP protein and the His tag; made in house; host or cells: Expi293F cells (culture supernatant)
T2 sequence (P29322 28-542 limits assumed): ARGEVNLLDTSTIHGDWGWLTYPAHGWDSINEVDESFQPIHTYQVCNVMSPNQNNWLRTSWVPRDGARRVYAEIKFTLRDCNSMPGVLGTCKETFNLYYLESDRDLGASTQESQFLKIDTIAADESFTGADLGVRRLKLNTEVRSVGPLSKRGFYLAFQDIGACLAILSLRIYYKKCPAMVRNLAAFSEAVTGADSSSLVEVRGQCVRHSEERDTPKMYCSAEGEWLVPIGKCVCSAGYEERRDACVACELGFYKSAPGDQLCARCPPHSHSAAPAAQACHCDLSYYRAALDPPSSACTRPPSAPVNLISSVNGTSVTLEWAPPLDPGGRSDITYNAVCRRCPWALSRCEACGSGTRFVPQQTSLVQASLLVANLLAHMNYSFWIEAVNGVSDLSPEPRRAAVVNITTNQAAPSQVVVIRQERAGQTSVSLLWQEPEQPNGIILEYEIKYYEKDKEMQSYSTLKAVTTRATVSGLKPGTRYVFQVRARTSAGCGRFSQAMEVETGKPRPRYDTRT

T3: human EphA7 (Homo sapiens, UniProt Q15375)
T3 construct: a protein of the extracellular region of each human Eph receptor fused with the SEAP protein and the His tag; made in house; host or cells: Expi293F cells (culture supernatant)
T3 sequence (Q15375 28-555 limits assumed): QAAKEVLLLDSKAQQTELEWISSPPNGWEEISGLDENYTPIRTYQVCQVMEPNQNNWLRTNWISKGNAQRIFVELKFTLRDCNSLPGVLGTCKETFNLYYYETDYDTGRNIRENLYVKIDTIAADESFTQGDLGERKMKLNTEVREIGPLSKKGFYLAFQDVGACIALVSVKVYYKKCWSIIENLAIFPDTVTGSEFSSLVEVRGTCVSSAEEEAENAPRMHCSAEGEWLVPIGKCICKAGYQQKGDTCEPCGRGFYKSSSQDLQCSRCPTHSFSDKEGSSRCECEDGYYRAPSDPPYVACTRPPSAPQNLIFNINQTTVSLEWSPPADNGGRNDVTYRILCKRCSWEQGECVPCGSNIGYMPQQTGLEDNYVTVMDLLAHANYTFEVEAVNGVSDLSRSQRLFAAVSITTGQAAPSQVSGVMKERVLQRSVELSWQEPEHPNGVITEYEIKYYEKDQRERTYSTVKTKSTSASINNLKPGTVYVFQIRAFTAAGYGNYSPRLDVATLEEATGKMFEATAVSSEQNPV

B1: 69 (antibody, V domains shown)
VH: QIQLVQSGSELKKPGASVKVSCKASGYTFTDYSMHWVRQAPGQGLKWMGWINTETGEPTYADDFKGRFVFSLDTSVSTAYLQISSLKAEDTAVYYCARIPLYYYGSRYWYFDVWGQGTTVTVSS
VL: DIQMTQSPSSLSASVGDRVTITCRASENIYRNLAWYQQKPGKAPKLLVYAATNLADGVPSRFSGSGSGTDYTLTISSLQPEDFATYYCQHFWGTPWTFGQGTKVEIK
modifications: synthetic humanized antibody heavy chain variable region sequence; synthetic humanized antibody light chain variable region sequence
B2: 86 (antibody, V domains shown)
VL: B1 VL with V48L, P80S
VH: B1 VH
modifications: constant regions without entry; synthetic humanized antibody light chain variable region sequence; synthetic humanized antibody heavy chain variable region sequence
B3: 83 (antibody, V domains shown)
VL: B1 VL with V48L, P80S
VH: B1 VH with D62Q, D63G, K65T
modifications: constant regions without entry; synthetic humanized antibody light chain variable region sequence; synthetic humanized antibody heavy chain variable region sequence
B4: 84 (antibody, V domains shown)
VL: B1 VL with V48L, P80S
VH: B1 VH with I2V, K46E
modifications: constant regions without entry; synthetic humanized antibody light chain variable region sequence; synthetic humanized antibody heavy chain variable region sequence
B5: 81 (antibody, V domains shown)
VL: B1 VL with V48L, P80S
VH: B1 VH with I2V, K46E, D62Q, D63G, K65T
modifications: constant regions without entry; synthetic humanized antibody light chain variable region sequence; synthetic humanized antibody heavy chain variable region sequence
B6: 89 (antibody, V domains shown)
VL: B1 VL with K45Q, V48L
VH: B1 VH with D62Q, D63G, K65T
modifications: constant regions without entry; synthetic humanized antibody light chain variable region sequence; synthetic humanized antibody heavy chain variable region sequence
B7: 85 (antibody, V domains shown)
VL: B1 VL with V48L, P80S
VH: B1 VH with I2V
modifications: constant regions without entry; synthetic humanized antibody light chain variable region sequence; synthetic humanized antibody heavy chain variable region sequence
B8: 88 (antibody, V domains shown)
VL: B1 VL with K45Q, V48L
VH: B1 VH with I2V, D62Q, D63G, K65T
modifications: constant regions without entry; synthetic humanized antibody light chain variable region sequence; synthetic humanized antibody heavy chain variable region sequence
B9: 82 (antibody, V domains shown)
VL: B1 VL with V48L, P80S
VH: B1 VH with I2V, D62Q, D63G, K65T
modifications: constant regions without entry; synthetic humanized antibody light chain variable region sequence; synthetic humanized antibody heavy chain variable region sequence
B10: 87 (antibody, V domains shown)
VL: B1 VL with K45Q, V48L
VH: B1 VH with I2V, K46E, D62Q, D63G, K65T
modifications: constant regions without entry; synthetic humanized antibody light chain variable region sequence; synthetic humanized antibody heavy chain variable region sequence

Columns and labels:
Test in all cases: Selectivity ELISA of humanized antibodies for human Eph receptor
Assay type in all cases: binding
[1] = target: T1, human EphA10; conditions: coated protein 1 nM
Summary of the method: (§1)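 Extracellular domains of human Eph receptors fused to SEAP-His were expressed in Expi293F cells for 5 days and captured from supernatant (1 nM final) on anti-His-coated plates. Humanized anti-EphA4 antibodies were incubated 1 h at room temperature, then HRP anti-IgG secondary, TMB substrate, and absorbance at 450 nm.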

[2] = target: T2, human EphA8; conditions: coated protein 1 nM
Summary of the method: as §1

[3] = target: T4, human EphA4 (Homo sapiens, UniProt P54764); conditions: coated protein 1 nM; reference set to 100%
T4 construct: made in house; not restated for the human SEAP-His protein
T4 sequence (P54764 20-547): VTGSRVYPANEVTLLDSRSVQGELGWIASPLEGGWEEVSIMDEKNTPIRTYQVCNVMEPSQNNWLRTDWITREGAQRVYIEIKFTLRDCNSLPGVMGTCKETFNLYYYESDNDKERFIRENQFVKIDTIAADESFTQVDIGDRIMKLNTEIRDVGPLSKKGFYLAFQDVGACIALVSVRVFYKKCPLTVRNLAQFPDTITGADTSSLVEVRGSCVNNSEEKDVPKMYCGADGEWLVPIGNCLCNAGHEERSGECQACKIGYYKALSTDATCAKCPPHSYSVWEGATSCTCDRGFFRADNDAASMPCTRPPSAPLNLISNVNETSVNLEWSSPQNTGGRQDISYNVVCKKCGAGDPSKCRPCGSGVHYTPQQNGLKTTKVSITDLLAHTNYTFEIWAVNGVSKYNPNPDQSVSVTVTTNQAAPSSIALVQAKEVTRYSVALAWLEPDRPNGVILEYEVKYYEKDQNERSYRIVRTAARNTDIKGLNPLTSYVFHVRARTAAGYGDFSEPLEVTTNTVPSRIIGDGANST
Summary of the method: as §1

[4] = target: T3, human EphA7; conditions: coated protein 1 nM
Summary of the method: as §1

Molecule | hEphA10-SEAP-: absorbance at 450 nm, percentage with respect to hEphA4-SEAP-His as 100% [1] [%] | hEphA8-SEAP-: absorbance at 450 nm, percentage with respect to hEphA4-SEAP-His as 100% [2] [%] | hEphA4-SEAP-: absorbance at 450 nm, percentage with respect to hEphA4-SEAP-His as 100% [3] [%] | hEphA7-SEAP-: absorbance at 450 nm, percentage with respect to hEphA4-SEAP-His as 100% [4] [%]
B1 | 5.4 | 5.5 | 100 | 5.3
B2 | 5.6 | 5.7 | 100 | 5.6
B3 | 5.6 | 6.0 | 100 | 5.5
B4 | 5.1 | 5.3 | 100 | 4.8
B5 | 4.8 | 5.2 | 100 | 5.2
B6 | 5.7 | 5.7 | 100 | 5.4
B7 | 5.0 | 5.5 | 100 | 4.8
B8 | 5.8 | 6.2 | 100 | 6.0
B9 | 5.4 | 5.8 | 100 | 5.4
B10 | 5.2 | 5.7 | 100 | 5.3

Source: patent US10428140B2, “Anti-EphA4 antibody” (EISAI R&D MANAGEMENT CO., LTD., priority 2015, dated 2019)
